Drawing on patent US20110243962A1 (GENEURO, published 2011), this text covers optic density and optical density for three molecules.

Assay [1] deals with T1, MSRV complete ENV protein (ENV-T), recombinant from E. coli (MSRV (Multiple Sclerosis associated …)).
T1 construct: also called ENV-T 7A; His-ENV-T
T1 chain: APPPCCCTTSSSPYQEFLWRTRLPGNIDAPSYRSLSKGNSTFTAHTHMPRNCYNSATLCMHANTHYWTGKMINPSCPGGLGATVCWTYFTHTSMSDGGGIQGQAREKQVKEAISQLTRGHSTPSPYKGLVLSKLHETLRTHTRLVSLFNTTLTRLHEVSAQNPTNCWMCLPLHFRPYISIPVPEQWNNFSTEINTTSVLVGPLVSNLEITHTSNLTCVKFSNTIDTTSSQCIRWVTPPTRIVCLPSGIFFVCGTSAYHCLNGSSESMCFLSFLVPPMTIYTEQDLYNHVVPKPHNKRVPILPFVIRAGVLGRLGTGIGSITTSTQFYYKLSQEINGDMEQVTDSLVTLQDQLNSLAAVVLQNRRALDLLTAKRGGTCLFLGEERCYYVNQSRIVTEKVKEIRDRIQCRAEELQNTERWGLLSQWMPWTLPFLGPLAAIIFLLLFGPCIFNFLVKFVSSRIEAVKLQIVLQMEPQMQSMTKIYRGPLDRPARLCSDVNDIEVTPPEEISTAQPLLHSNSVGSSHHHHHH
The assay is described as follows: ELISA; ENV 1 ug/ml coated; mAb 1 ug/ml. As to the method:
(§1) Protocol: Incubation 2 h at 37° C. […] Revelation is made by adding OPD substrate and reading optic density with a spectrophotometer after 30 min (Washing steps with PBS are performed between every step).
On the technique in general: In an ELISA, binding on a coated surface is turned into a signal by an enzyme label.

Assay [2] concerns the target T1, MSRV complete ENV protein (ENV-T), …. The assay is described as follows: ELISA; ENV 0.125 ug/ml coated; mAb 1 ug/ml. As to the method:
as §1

For assay [3] the target is unchanged. The assay is described as follows: ELISA; ENV 0.0078 ug/ml coated; mAb 1 ug/ml. As to the method:
as §1

For assay [4] the target is unchanged. The assay is described as follows: ELISA; ENV 0.0625 ug/ml coated; mAb 1 ug/ml. As to the method:
as §1

For assay [5] the target is unchanged. The assay is described as follows: ELISA; ENV 0.03125 ug/ml coated; mAb 1 ug/ml. As to the method:
as §1

For assay [6] the target is unchanged. Briefly: ELISA; coated ENV-T 7A 0.5; ligand 1 microgram. As to the method: (§2) II-1d Direct ELISA on Microplates Coated with ENV Antigen (ENV-T or ENV-SU as Described Above) [0159] Microwells were coated with 100 μl per well of ENV antigen diluted in 50 mM Sodium Bicarbonate, pH 9.6. Plate were sealed and incubated 2 hours at 37° C. under light agitation. [0160] Microwells were washed 4 times with 250 μl per well of PBS (Phosphate Buffer Saline). After the last, plates were inverted and blotted on absorbent paper to remove any residual buffer. [0161] 100 μl per well of detection antibody according to the present invention (GNbAC1 or its Fab fragment) diluted in PBS+BSA 1% (PBS with 1% of Bovine Serum Albumin) were added. Plate were sealed and incubated 1 hour at room temperature under light agitation. […] Microwells were washed 4 times with 250 μl per well of PBS. After the last, plates were inverted and blotted on absorbent paper to remove any residual buffer. [0163] […] Plate were sealed and incubated 1 hour at room temperature under light agitation. [0164] Microwells were washed 6 times with 250 μl per well of PBS. After the last, plates were inverted and blotted on absorbent paper to remove any residual buffer. [0165] 100 μl par well of Substrate Solution (1 tablet of o-Phenylenediamine (OPD) diluted in 10 ml of 0.05M Phosphate Citrate Buffer pH5+10 μl H2O2 30%, prepared at the last moment) were added. Plates were incubated 30 min at room temperature in the dark. […] 50 μl per well of Stop Solution 2N H2SO₄ were added. [0167] The absorbance was read at 490 nm within 30 minutes of stopping reaction.
(§3) Env-T antigen is coated onto microtiter ELISA plate wells with serial dilutions ranging from 1 μg/ml to about 0.01 μg/ml.

Assay [7] shares this target. The assay is described as follows: ELISA; ENV-T 7A 1 ug/ml coated; mAb 0.125 ug/ml. As to the method: as §1
Assay [8] shares this target. The assay is described as follows: ELISA; coated ENV-T 7A 0.125; ligand 1 microgram. As to the method:
as §2, §3

Assay [9] shares this target. The assay is described as follows: ELISA; ENV-T 7A 1 ug/ml coated; mAb 0.0078 ug/ml. As to the method:
as §1

Assay [10] has the same target. The assay is described as follows: ELISA; ENV-T 7A 1 ug/ml coated; mAb 0.0156 ug/ml. As to the method: as §1
Assay [11] shares this target. The assay is described as follows: ELISA; ENV-T 7A 1 ug/ml coated; mAb 0.0625 ug/ml. As to the method:
as §1

Assay [12] shares this target. The assay is described as follows: ELISA; coated ENV-T 7A 0.0625; ligand 1 microgram. As to the method: as §2, §3
Assay [13] shares this target. Briefly: ELISA; coated ENV-T 7A 0.03125; ligand 1 microgram. As to the method: as §2, §3

Substitutions are numbered along the chain they refer to.

B1: GNbAC1 murine monoclonal antibody (IgG1/kappa) (antibody, V domains shown)
VH: QVQLQQSGAELVRPGAPVTLSCKASGYTFTDYEMHWVKQTPVHGLEWIGAVAPETGGTAYNQKFKGKATLTAAKSSSTAYMELRSLTSEDSAVYYCTSTVVPFAYWGQGTLVTVSA
VL: QIVLTQSPAIMSASPGEKVTISCSASSSVSYMYWYQQKPGSSPKAWIYRTSNLASGVPGRFSGSGSGTSYSLTISSMEAEDAATYYCQQYQSLPLTFGSGTKLEIK
notes: Murine IgG1/kappa from hybridoma; also called murine IgG1; muIgG
In the case of B1, the optic density in assay [1] is 2.22 OD; in [2] it was 0.975 OD; in [3], 0.111 OD; in assay [4], 0.837 OD; in assay [5], 0.367 OD; in assay [7] it was 0.945 OD. For the same molecule, the results for the optic density in assay [9], in assay [10] and in assay [11] were 0.13 OD, 0.166 OD and 0.585 OD, respectively. The optical density worked out at 2.9 OD in assay [6], 2.29 OD in [8], 1.56 OD in assay [12] and 1.34 OD in assay [13].

B2: Chimeric GNb AC1 IgG1 (human IgG1 constant regions with murine VH and VL) (antibody, V domains shown)
VH: B1 VH
VL: B1 VL
notes: Human IgG1 heavy constant region and human kappa constant region, made in CHO cells; also called GNbAC1 chimeric IgG1; Ligand in human IgG1
For the molecule B2, the optic density in assay [1] came to 2.52 OD; in [2], 1.82 OD; in assay [3], 0.642 OD; in [4], 1.85 OD; in assay [5] it was 1.6 OD; in [7], 2.44 OD. For the same molecule, the optic density amounted to 0.85 OD in assay [9], 1.27 OD in [10] and 2.51 OD in assay [11]. Besides, the optical density in assay [6] turned out to be 3 OD; in [8], 2.39 OD; in assay [12], 1.8 OD; in assay [13], 1.56 OD.

B3: Chimeric GNb AC1 IgG4 (human IgG4 constant regions with murine VH and VL) (antibody, V domains shown)
VH: B1 VH with P17S
VL: QIVLTQSPAIMSASPGEKVTISCSASSSVSYMYWYQQKPGSSPKAWIYRTSNLASGVPGRFSGSGSGTSYSLTISSMEAEDAATYYCQQYQSLPLTFGSGTKLEIKR
notes: also called GNbAC1 chimeric IgG4; GNbAC1-IgC4
Consider B3, for which the optic density in assay [1] was 2.67 OD; in assay [2], 1.56 OD; in assay [3] it was 0.313 OD; in assay [4], 1.55 OD; in [5] it was 1.09 OD; in assay [7] it was 1.81 OD. Further, the values for the optic density in assay [9], in assay [10] and in assay [11] were 0.474 OD, 0.777 OD and 1.66 OD, respectively. For the same molecule, the optical density in [6] was 2.89 OD; in assay [8], 1.99 OD; in assay [12], 1.52 OD; in [13] it was 1.37 OD.
